doi:10.1101/2024.02.23.581826 (bioRxiv, 2024)
“And” between values parts separate entries of the source, which are not always exact repeats. Equal entries are not always repeated. Where two headings read alike, the source gives them in different places.

Key:
Assay in all cases: SPR
[1] = molecular target: T1, isolated CNBH domain of mouse EAG1 (mEAG1) channels, residues 552-708 (mouse, UniProt Q60603 552-708)
T1 sequence (looked up): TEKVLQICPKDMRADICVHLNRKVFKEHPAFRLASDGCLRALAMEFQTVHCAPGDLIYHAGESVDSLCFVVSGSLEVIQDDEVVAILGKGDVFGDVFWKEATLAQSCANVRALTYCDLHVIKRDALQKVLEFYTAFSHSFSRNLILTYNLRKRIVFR

[2] = molecular target: T1, isolated CNBH domain of mouse EAG1 …; remark: listed apart in the source
[3] = molecular target: T1, isolated CNBH domain of mouse EAG1 …; remark: listed apart in the source
[4] = molecular target: T1, isolated CNBH domain of mouse EAG1 …; remark: listed apart in the source

B1: isolated PAS domain of mouse EAG1 (mEAG1) channels, residues 7-136 (domain or fragment, UniProt Q60603 7-136, looked up)
chain: RRGLVAPQNTFLENIVRRSNDTNFVLGNAQIVDWPIVYSNDGFCKLSGYHRAEVMQKSSACSFMYGELTDKDTVEKVRQTFENYEMNSFEILMYKKNRTPVWFFVKIAPIRNEQDKVVLFLCTFSDITAF
B1 was tested, and the Kd [1] was 1.6 µM, the Kd [2] was 0.9 µM and 0.5 µM and the Kd [3] was 1.8 µM. For the same binder, the Kd [4] was 2.5 µM and 2.9 µM.
